Patent US20050074814A1, “Relaxin3-GPCR135 complexes and their production and use” (priority 2003, published 2005)

Assays:
GPCR135 [1] = target: T1, GPCR135 (Homo sapiens, UniProt Q9NSD7); design: host or cells: Cos-1 (transient); conditions: transient expression of GPCR135 in Cos-1 cells; cited from earlier work
T1 sequence (Q9NSD7 1-469): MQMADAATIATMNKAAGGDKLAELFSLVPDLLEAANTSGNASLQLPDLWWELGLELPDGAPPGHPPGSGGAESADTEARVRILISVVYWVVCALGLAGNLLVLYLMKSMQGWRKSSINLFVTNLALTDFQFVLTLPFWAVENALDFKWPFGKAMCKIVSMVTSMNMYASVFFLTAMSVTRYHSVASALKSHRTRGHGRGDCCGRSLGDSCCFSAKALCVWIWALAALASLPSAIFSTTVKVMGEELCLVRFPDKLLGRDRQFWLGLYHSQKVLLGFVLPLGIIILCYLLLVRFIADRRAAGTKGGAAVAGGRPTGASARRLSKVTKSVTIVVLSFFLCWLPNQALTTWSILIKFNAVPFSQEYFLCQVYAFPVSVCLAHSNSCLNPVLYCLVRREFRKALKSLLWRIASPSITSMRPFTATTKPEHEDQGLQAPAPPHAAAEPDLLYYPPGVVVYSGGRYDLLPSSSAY

CHO-K1 cells = test: Intracellular cAMP accumulation assay in un-transfected CHO-K1 control cells; format: cell-based
Procedure: CHO-K1 cells stably expressing human GPCR135 (GPCR135) and un-transfected CHO-K1 cells (Control) were used for cAMP accumulation assays. Cells were treated with different stimulants as indicated. cAMP accumulated in the cells was extracted by HCl and the concentration of cAMP was measured by a ELISA kit (NEN) using ^125I-labeled cAMP and Flash plates.
(§1) CHO-K1 cells stably expressing human GPCR135 were established by transfection of GPCR135 expressing plasmid into CHO-K1 (ATCC# CCL-61) cells and culturing the transfected cells under selection of G418 (400 mg/L). The receptor expressing cells were seeded in 96-well plates at a cell density of 30,000 cells/well. Twenty-four hours later, cell culture medium was replaced with DMEM-F12 plus 2 mM IBMX (sigma). A different test compound for cAMP stimulation was added to each well. The reactions were incubated at room temperature for 20 min. Twenty micro-liters of 0.5 N HCl was added to each well to stop the reaction and extract the accumulated cAMP. The cAMP concentration was measured using a cAMP ELISA kit (NEN).

human GPCR135 = test: Intracellular cAMP accumulation assay in CHO-K1 cells stably expressing human GPCR135; format: cell-based; conditions: in the presence of GPCR135
Procedure: as §1

GPCR135 [2] = target: T1, GPCR135; test: as above; format: cell-based; design: primers complementary to the putative translation start and stop sites of the GPCR135 open reading frame; expressed in transfected cells; host or cells: CHO-K1 (transient, pCIneo vector), membranes; conditions: CHO-K1 cells expressing human GPCR135
Procedure: as §1

LGR7 = target: T2, LGR7 (Homo sapiens, UniProt Q9HBX9); conditions: cited from earlier work
T2 sequence (Q9HBX9 1-757): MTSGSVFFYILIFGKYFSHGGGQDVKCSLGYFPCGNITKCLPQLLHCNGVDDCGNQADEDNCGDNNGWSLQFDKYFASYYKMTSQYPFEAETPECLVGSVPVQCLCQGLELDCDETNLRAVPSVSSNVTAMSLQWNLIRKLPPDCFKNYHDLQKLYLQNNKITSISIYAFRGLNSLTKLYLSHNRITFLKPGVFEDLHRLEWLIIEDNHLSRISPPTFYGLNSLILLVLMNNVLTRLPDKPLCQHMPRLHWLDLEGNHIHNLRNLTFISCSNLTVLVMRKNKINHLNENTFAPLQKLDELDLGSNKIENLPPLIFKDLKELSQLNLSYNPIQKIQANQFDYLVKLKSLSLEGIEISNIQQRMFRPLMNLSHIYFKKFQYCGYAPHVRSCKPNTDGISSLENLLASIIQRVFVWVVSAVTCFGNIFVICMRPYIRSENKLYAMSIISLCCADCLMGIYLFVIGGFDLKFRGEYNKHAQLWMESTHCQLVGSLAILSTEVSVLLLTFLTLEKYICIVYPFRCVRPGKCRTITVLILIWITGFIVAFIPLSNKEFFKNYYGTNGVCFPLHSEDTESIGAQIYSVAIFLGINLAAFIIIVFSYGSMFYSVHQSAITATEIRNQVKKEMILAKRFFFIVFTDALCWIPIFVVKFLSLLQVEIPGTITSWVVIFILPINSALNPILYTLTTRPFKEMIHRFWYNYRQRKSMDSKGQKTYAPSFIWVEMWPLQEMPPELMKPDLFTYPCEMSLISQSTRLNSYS

GPCR135 [3] = target: T1, GPCR135; test: Ca2+ mobilization assay (FLIPR) in HEK293 cells co-expressing GPCR135 and Gqi5; format: cell-based; design: primers complementary to the putative translation start and stop sites of the GPCR135 open reading frame; expressed in transfected cells
Procedure: Using LipofectAmine, human embryonic kidney (HEK) 293 cells were co-transfected with a plasmid expressing GPCR135 receptor and a plasmid expressing Gqi5, a mutant G-protein that translates the activation of GPCR135 into an increased intracellular Ca 2+, or increased Ca^2+ mobilization (Conklin et al., 1993, Nature 363: 274-276). Two days after transfection, cells were detached with PBS plus 10 mM EDTA, pH 8.0. The detached cells were washed with DMEM-F12 medium (without phenol red, Invitrogen) and seeded in black poly-D lysine coated 96-well plates at a cell density of 50,000 cell/well. Calcium dye, Fluo-3 (AM) (TEFLABS, Austin, Tex.) was loaded into the cells and ligand stimulated calcium mobilization was monitored using FLIPR (Molecular Device).
HEK293 cells, untransfected (293 Control) or transfected by Gqi5 (293/Gqi5) alone or human GPCR135 (GPCR135) alone, or co-transfected by human GPCR135 and Gqi5 (GPCR135/Gqi5), were used for Ca^2+ mobilization assays under stimulation of relaxin3 as the ligand. Ligand-stimulated intracellular mobilization was monitored using FLIPR.

GPCR135 [4] = target: T1, GPCR135; test: GTPγS binding assay with GPCR135 expressing cell membranes; format: biochemical; design: primers complementary to the putative translation start and stop sites of the GPCR135 open reading frame; expressed in transfected cells; host or cells: CHO-K1 (transient, pCIneo vector), membranes; conditions: isolated membranes of CHO-K1 cells transfected with GPCR135; 35S-GTPγS
Procedure: Frozen rat brains (5 g) were homogenized at −30° C. in 40 ml ethanol/HCl (ethanol to 0.8M HCl ratio at 3:1). The homogenate was extracted at 4° C. for 2 hr and then centrifuged at 4° C. at 20,000 g for 30 min. The supernatant was loaded onto a 2 ml SP-Sephadex C-25 column (Amersham), washed with 1 M acetic acid and eluted with 2 M pyridine and 1 M acetic acid. The eluted fraction was loaded onto a 6 ml C-18 BondElut column, washed with 0.1% TFA and eluted with 60% acetonitrile and 0.1% TFA. The eluted peptides were lyophilized, reconstituted in water, and tested for GPCR135 ligand activity using GTPγS binding assay as described in Example 5.
GPCR135 expression vector was transfected into CHO-K1 cells using Lipofectamine (Invitrogen). Two days after transfection, the transfected cells were harvested and homogenized in GTPγS binding buffer: 50 mM Tris-HCl, pH 7.4, 10 mM MgCl2, 1 mM EDTA pH 8.0, and 100 mM NaCl. Protease inhibitors were added to the buffer at concentrations of 1 mM PMSF, 10 μg/ml of pepstain A, 10 μg/ml of leupeptin. Cell membranes were isolated by centrifugation at 20,000 g for 30 min. […] Microscint-40 (Packard) was added to each well and the plate was counted on a top counter (TopCount NTX, Packard).

rat GPCR135 = test: Radioligand binding assay on COS-7 cells transfected with GPCR135; conditions: rat GPCR135 in COS-7 cells; presence or absence of 1 μM unlabeled competitor
Procedure: (§2) COS-7 cells in 6-well tissue culture plates were transfected by GPCR135 expressing plasmid using LipofectAmine. Two days after transfection, cells were washed with binding buffer: DMEM plus 50 mM Hepes, pH 7.2 and 1% BSA. ^125I-label human relaxin3 was added to each well in 1 ml of binding buffer at presence or absence 1 μM of unlabeled relaxin as competitor. The binding assays were carried out at room temperature for one hour and the unbound ligand was washed away by ice-cold PBS. The bound 125I-relaxin3 was counted in a gamma counter.

mouse GPCR135 = target: T3, mouse GPCR135 (Mus musculus, UniProt Q8BGE9); test: as above; conditions: mouse GPCR135 in COS-7 cells; presence or absence of 1 μM unlabeled competitor
T3 construct: Mouse GPCR135 coding region was PCR amplified from mouse genomic DNA; expressed in transfected cells; host or cells: COS-7 (transient)
T3 sequence (Q8BGE9 1-472): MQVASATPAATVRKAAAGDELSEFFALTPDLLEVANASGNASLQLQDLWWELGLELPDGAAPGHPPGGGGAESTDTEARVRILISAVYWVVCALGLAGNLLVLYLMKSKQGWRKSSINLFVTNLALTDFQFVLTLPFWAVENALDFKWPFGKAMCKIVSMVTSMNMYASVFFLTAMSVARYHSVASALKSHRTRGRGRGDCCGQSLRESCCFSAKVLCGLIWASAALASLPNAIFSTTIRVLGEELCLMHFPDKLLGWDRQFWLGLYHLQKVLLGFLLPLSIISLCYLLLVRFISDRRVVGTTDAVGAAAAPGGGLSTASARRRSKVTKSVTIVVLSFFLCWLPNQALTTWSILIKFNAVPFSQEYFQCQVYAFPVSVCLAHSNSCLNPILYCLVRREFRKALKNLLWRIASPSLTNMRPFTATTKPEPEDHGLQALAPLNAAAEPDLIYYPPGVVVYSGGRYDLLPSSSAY
Procedure: as §2

GPCR135 [5] = target: T1, GPCR135; test: as above; design: primers complementary to the putative translation start and stop sites of the GPCR135 open reading frame; expressed in transfected cells; conditions: human GPCR135 in COS-7 cells; presence or absence of 1 μM unlabeled competitor
Procedure: as §2

Chain of rat GPCR135 (as listed by the source): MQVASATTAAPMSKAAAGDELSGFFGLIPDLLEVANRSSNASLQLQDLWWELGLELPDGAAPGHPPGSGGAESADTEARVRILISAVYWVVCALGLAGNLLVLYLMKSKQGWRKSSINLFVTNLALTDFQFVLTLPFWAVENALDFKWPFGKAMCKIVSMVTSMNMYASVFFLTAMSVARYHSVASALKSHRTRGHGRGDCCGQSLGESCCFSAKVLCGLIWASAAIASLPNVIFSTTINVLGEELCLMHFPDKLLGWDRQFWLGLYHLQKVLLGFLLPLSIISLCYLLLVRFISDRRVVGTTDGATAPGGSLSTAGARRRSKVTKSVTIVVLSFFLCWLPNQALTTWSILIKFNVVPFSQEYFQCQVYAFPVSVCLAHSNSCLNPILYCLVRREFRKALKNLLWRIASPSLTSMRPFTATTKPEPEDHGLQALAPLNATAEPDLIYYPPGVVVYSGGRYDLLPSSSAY

## angiotensin II (DRVYIHPF; Angiotensin-2; UniProt P01019 25-32, looked up)
GPCR135 [1]
  binding sites on GPCR135 expressing cells: did not produce any binding sites

## C=C[C@@]1(C)CC(=O)[C@]2(O)[C@@]3(C)[C@@H](O)CCC(C)(C)[C@@H]3[C@H](O)[C@H](OC(C)=O)[C@@]2(C)O1 [forskalin]
CHO-K1 cells; in the absence of GPCR135
  intracellular concentration of cAMP: increases the intracellular concentration of cAMP
Human GPCR135
  intracellular concentration of cAMP: increases the intracellular concentration of cAMP

## relaxin3: recombinant human relaxin3, mature two-chain (A and B) peptide linked by disulfide bridges, purified from transfected COS-7 medium
GPCR135 [2]
  forskalin-stimulated cAMP accumulation: inhibits forskalin-stimulated cAMP accumulation
LGR7
  activation of LGR7: activates LGR7
GPCR135 [3]
  ligand-stimulated intracellular Ca2+ mobilization: stimulated Ca^2+ mobilization
CHO-K1 cells; control cells where GPCR135 is absent
  forskalin-stimulated cAMP accumulation: not in control cells
GPCR135 [4]
  stimulation of GTPγS binding in GPCR135 expressing cell membrane: potently stimulated GTPγS binding

## ^125I-relaxin 3: 125I-labeled human relaxin3 used as radioligand
Rat GPCR135
  specific binding to GPCR135: specifically binds
Mouse GPCR135
  specific binding to GPCR135: specifically binds
GPCR135 [5]
  specific binding to GPCR135: specifically binds
